According to US12371456B2, “Proteins for the treatment of epithelial barrier function disorders” (Genevive, Inc., priority 2017, dated 2025):

Legend:
IL-10 = IL-10 production by monocytes in co-culture TEER assay (Luminex); format: cell-based, human; conditions: pre-incubated 6 hours prior to HK E. coli; FIG. 3
Experimental: IL-10 production was measured in tissue culture supernatant from the basolateral chamber of the co-culture TEER assay described in Example 2 containing monocytes. Luminex analysis was performed to determine the pg/ml concentration of IL-10 produced by the monocytes. IL-10 production in untreated cells and cells pre-incubated with SG-14 for 6 hours prior to HK E. coli treatment were normalized to pg/ml concentrations elicited by HK E. coli which was set to 1.0. Pre-incubation with SG-14 increased IL-10 production to 1.21. The graph in FIG. 3 represents data pooled from two individual experiments (n=6).

[1] = tested on: LPS binding protein (LBP); assay: DSS model: LPS binding protein (LBP) in serum by ELISA; format: in vivo, C57BL/6 mice; conditions: 50 nmoles/kg i.p. b.i.d., 2.5% DSS; FIG. 7
Experimental: (§1) Eight-week old C57BL/6 mice were housed 5 animals were cage and given food and water ad libitum for 7 days. Following the 7-day acclimation period, treatments were initiated concurrently with addition of 2.5% DSS to the drinking water. […] The mice were treated with 2.5% dextran sodium sulfate (DSS) in their drinking water for 6 days. Treatments were continued with SG-14 or Gly2-GLP2 twice a day (b.i.d.) in the morning and evening (every 8 and 16 hr) with i.p. injections at 50 nmoles/kg. Fresh 2.5% DSS drinking water was prepared every 2 days.
SG-14 was also assessed for its effects on the levels of LPS binding protein (LBP) in the blood of the DSS animal with and without SG-14 administration. LPS binding protein (LBP), which has been linked to clinical disease activity in subjects with inflammatory bowel disease, was also measured by ELISA in the serum of mice tested in the DSS model described in Example 7. […] Results are shown in FIG. 7, and are presented as mean f SEM. The graph in FIG. 7 represents data pooled from the single experiment (n=10).

[2] = tested on: DSS model of inflammatory bowel disease; assay: DSS model: body weight; format: in vivo, C57BL/6 mice; conditions: 50 nmoles/kg i.p. b.i.d., 2.5% DSS; FIG. 8
Experimental: as §1, with “SG-14 or […]-GLP2 twice a” for “SG-14 or Gly2-GLP2 twice a”, “2 days. Body weight was measured daily from mice included in the DSS model described in this Example. Percent change from starting weight on day 0 was determined for each mouse. […] The graph in FIG. 8 represents data pooled from the single experiment (n=10).” for “2 days.”

[3] = tested on: DSS model of inflammatory bowel disease; assay: DSS model: gross pathology score; format: in vivo, C57BL/6 mice; conditions: FIG. 9
Experimental: as §1, with “SG-14 or […]-GLP2 twice a” for “SG-14 or Gly2-GLP2 twice a”, “2 days. Gross pathology observations were made in mice included in the concurrent DSS model performed in this Example. […] The scoring system used was: (0)=no gross pathology, (1)=streaks of blood visible in feces, (2)=completely bloody fecal pellets, (3) bloody fecal material visible in cecum, (4) bloody fecal material in cecum and loose stool, (5)=rectal bleeding. The graph in FIG. 9 represents data pooled from the single experiment (n=10).” for “2 days.”

[4] = tested on: DSS model of inflammatory bowel disease; assay: DSS model: colon length and colon weight to length ratio; format: in vivo, C57BL/6 mice; conditions: DSS treated mice
Experimental: as §1, with “SG-14 or […]-GLP2 twice a” for “SG-14 or Gly2-GLP2 twice a”, “2 days. Colon length was measured in mice included in the DSS model described in Example 7. […] The graphs in FIG. 10 and FIG. 11 represent data pooled from the single experiment (n=10).” for “2 days.”

[5] = tested on: DSS model of inflammatory bowel disease; assay: DSS model: colonic tissue histopathology score; format: in vivo, C57BL/6 mice; conditions: FIG. 12A
Experimental: as §1
Colon tissue was collected from mice in the DSS model described in this Example 7. Tissues were fixed in 10% formalin, processed for paraffin embedding and sectioned. Tissue sections were stained with Hematoxylin and Eosin and scored for pathology by a pathologist specializing in gastrointestinal disease. The scoring system used multiple pathology readouts including inflammation, edema, transmural inflammation, mucosal hyperplasia, dysplasia, loss of mucosal architecture, the extent of tissue affected, and the extent of tissue affected by the most severe pathology. Each readout was scored on a scale of 0-4 and a total score was generated by totaling all readout values for each treatment. […] The graph in FIG. 12A and images in […] represent data from the single experiment (n=10).

B1: SG-14: Eubacterium eligens protein comprising SEQ ID NO:3; tested form expressed in E. coli, with exogenous GPLG at N-terminus and PHRD at C-terminus (protein)
chain: GCARNSTSTTTASGGETTITSAITKEDTDVTHADDAENYRVSITGDFTVTSDTSDGVTQSGSVYTITKAGEYTVTGLLSEGQLIVDAGNENEVTIVLNGTSITCSSGSPIYVKNASEVKIKSEENSFNEVIDNRNEATEDSSDDAGNAAIYATCDLKLVGKGALVVTGNYNNGIQSKDDLSIKNVIVKVTAVNNAVKVNDAVDIESGNIIAISAKGDGIKTSNSSISNKGNQKGIVTITSGNIDIYAACDGIDASYGADISGDGNLNIYTDTYSEYSEEVTSSGSSSGTSSGRDSSANKSASANTVSYVATSDTIANAPSGFGGGNMGSGNAPDMSNGNAPNMNGSSDRNKTGGNRPGMPGDFNESGNSSGQSYSTKGIKAESEINISGFTINICSTDDGIHANSDSGVLETGEDGKGTIVINGGSITISSGDDGMHADKQLDVNDGYINVVTSYEGLEAMTINLNGGKIYVYATDDGINACTGDGKTSPIVNVTGGYIDVTTTSGDTDGIDSNGNYVQTGGFVLVKGGSSSGNVSGSIDVDGTVTITGGTCVALGGVCETPVNSANAYVLGSVSFSSGSYSLKDSSGNEVISFTVDGSFSNGWICSDTLTTGSSYTLYRGADSIADWTQE
modifications: N-terminal GPLG and C-terminal PHRD
**Q.** B1 was tested. Which “IL-10 production normalized to HK E. coli (set to 1.0)” value (IL-10) did it give?
**A.** 1.21

**Q.** And the “Serum LBP concentration vs DSS mice treated with vehicle” value [1]?
**A.** significant reduction

**Q.** What about the “Serum LBP concentration vs control peptide Gly2-GLP2” value [1] of the same molecule?
**A.** greater impact on LBP concentration

**Q.** And the “Body weight (percent change from day 0) vs vehicle treated DSS mice” value [2]?
**A.** significantly improved body weight

**Q.** And the “Gross pathology score (0-5) vs vehicle treated DSS mice” value ([3]; 50 nmoles/kg i.p. b.i.d., 2.5% DSS)?
**A.** significantly improved gross pathology

**Q.** And the “Clinical scores vs DSS mice treated with Gly2-GLP2” value [3]?
**A.** No differences

**Q.** And the Colon length ([4]; FIG. 10)?
**A.** prevented colon shortening

**Q.** And the “Ratio between colon weight and length” value ([4]; FIG. 11)?
**A.** significant reduction

**Q.** What about the “Colon pathology scores vs positive control Gly2-GLP2” value [5] of the same molecule?
**A.** further reduced colon pathology scores significantly

**Q.** What about the “Colonic pathology (total histopathology score) vs DSS” value ([5]; H&E sections, readouts scored 0-4) of the same molecule?
**A.** significantly reduced colonic pathology
